Results published in PMC5693944, “Ml proteins from Mesorhizobium loti and MucR from Brucella abortus: an AT-rich core DNA-target site and oligomerization ability”.

B1: Seq1.1 (dsDNA)
DNA 1: CCACGTCCCTAGTCGCGTCA
DNA 2: TGACGCGACTAGGGACGTGG
B2: Seq1.2 (dsDNA)
DNA 1: CCACTGACCGCGTCGCGTCA
DNA 2: TGACGCGACGCGGTCAGTGG
B3: Seq3.1 (dsDNA)
DNA 1: ATTGACGCCCTAATAAGCTA
DNA 2: TAGCTTATTAGGGCGTCAAT
B4: Seq3.2 (dsDNA)
DNA 1: ATTGACTAAAGCCGAAGCTA
DNA 2: TAGCTTCGGCTTTAGTCAAT
B5: Core1 (dsDNA)
DNA 1: GGCGCCGAAATAGCGGAGCG
DNA 2: CGCTCCGCTATTTCGGCGCC
B6: Core2 (dsDNA)
DNA 1: GGCGCCGAAATAACGGAGCG
DNA 2: CGCTCCGTTATTTCGGCGCC
B7: Core3 (dsDNA)
DNA 1: GGCGCCGAAATACCGGAGCG
DNA 2: CGCTCCGGTATTTCGGCGCC
B8: Core2mut (dsDNA)
DNA 1: GGCGCCGAAAAAACGGAGCG
DNA 2: CGCTCCGTTTTTTCGGCGCC
B9: Core4 (dsDNA)
DNA 1: GCGAAAAAAATAATTTTGCC
DNA 2: GGCAAAATTATTTTTTTCGC
B10: Core4mut (dsDNA)
DNA 1: GCGAAAAAAAAAATTTTGCC
DNA 2: GGCAAAATTTTTTTTTTCGC
B11: Core5 (dsDNA)
DNA 1: GGCGCCGATATATCGGAGCG
DNA 2: CGCTCCGATATATCGGCGCC
B12: Exoy43bp (dsDNA)
DNA 1: CCACTGAAATAGTCGCGTCATGAATTGACTAAATAATAAGCTA
DNA 2: TAGCTTATTATTTAGTCAATTCATGACGCGACTATTTCAGTGG

Tests used:
Ml2 = molecular target: T1, Ml2 (Mesorhizobium loti, UniProt A0A1A5JHX8 1-141); assay: EMSA; conditions: protein: recombinant; chain copies: 10
T1 sequence: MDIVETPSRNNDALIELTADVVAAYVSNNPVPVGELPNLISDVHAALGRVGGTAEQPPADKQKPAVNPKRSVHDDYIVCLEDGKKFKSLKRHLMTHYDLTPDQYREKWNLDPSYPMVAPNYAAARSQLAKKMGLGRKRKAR

MucR = MucR (Brucella abortus 2308, UniProt Q2YMR3 1-142); assay: EMSA; conditions: protein: recombinant; chain copies: 10; blunt

| Binder | binding result (Ml2) | binding result (MucR) |
| --- | --- | --- |
| B1 | no binding | no binding |
| B2 | no binding | no binding |
| B3 | no binding | no binding |
| B4 | no binding | no binding |
| B5 | binds |  |
| B6 | binds |  |
| B7 | binds |  |
| B8 | no binding |  |
| B9 | binds |  |
| B10 | no binding |  |
| B11 | binds |  |
| B12 | binds | binds |
